In paper PMC2768378:

Assays:
[1] = target: single chain H2A.Z-H2B (single stranded H2A.Z-H2B protein) (budding yeast); assay: CPMG relaxation dispersion NMR
[2] = target: single chain H2A.Z-H2B (single stranded H2A.Z-H2B protein) (budding yeast); assay: ITC

B1: Chz.core (residues 71–132 of Chz1) (domain or fragment)
chain: DMDDAKLDALMGNEGEEEEDDLAEIDTSNIITSGRRTRGKVIDYKKTAEELDKKEPSTGSKD
- Kd [1]: 220 nM
- koff [1]: 22 s⁻¹
- Kd [2]: 100 nM
